Measurements published in patent US11649460B2, “DNA aptamers, method for inhibiting human galectin-1 and method of treating a mammal in need thereof” (priority 2020, dated 2023).

Columns and labels:
[1] = test system: MCF-7 human breast adenocarcinoma cell line; assay: SRB cell proliferation (cytotoxicity) assay, MCF-7
Text: (§1) The XLSTAT software was used to determine the IC50, TGI and LC50 values using the four-parameter logistic curve equation.

[2] = test system: DU-145 human prostate carcinoma cell line; assay: SRB cell proliferation (cytotoxicity) assay, DU-145
Text: as §1

[3] = test system: A-375 human malignant melanoma; assay: SRB cell proliferation (cytotoxicity) assay, A-375
Text: as §1

[4] = test system: HT-29 human colorectal adenocarcinoma; assay: SRB cell proliferation (cytotoxicity) assay, HT-29
Text: as §1

[5] = test system: HCT 116 human colorectal carcinoma; assay: SRB cell proliferation (cytotoxicity) assay, HCT 116
Text: as §1

[6] = test system: SK-BR-3 human breast adenocarcinoma; assay: SRB cell proliferation (cytotoxicity) assay, SK-BR-3
Text: as §1

[7] = test system: OVCAR-3 human ovarian adenocarcinoma cell line; assay: SRB cell proliferation (cytotoxicity) assay, OVCAR-3
Text: as §1

[8] = test system: NHF human foreskin skin fibroblasts; assay: in vitro
Text: as §1

[9] = test system: alkylated galectin-1; assay: Thermofluor thermal shift assay (TSA), alkylated galectin-1; assay type: binding, human; conditions: 5 μM protein
alkylated galectin-1, sequence (P09382 2-135): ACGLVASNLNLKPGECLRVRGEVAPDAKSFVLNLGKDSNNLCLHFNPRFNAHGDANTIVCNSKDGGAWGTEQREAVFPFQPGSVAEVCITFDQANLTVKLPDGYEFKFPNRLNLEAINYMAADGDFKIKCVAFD
Method: In an attempt to screen among the selected aptamers that better interact with hGal1, differential scanning fluorimetry (Termofluor) was used to characterize their binding to its target. Among all the selected aptamers, SEQ ID NO.: 4 seemed to have a more intense effect on hGal1 thermoshift and so was chosen for further analysis. The selected aptamer had its interaction evaluated with native and alkylated galectin-1. […] The respective thermal displacements were evaluated as a function of an increasing concentration of SEQ ID NO.: 4 (FIG. 1).
Thermofluor experiments were performed on an Mx3005 RT-PCR (Agilent Technologies) using the SYPRO® Orange dye (492/610 nm) (Invitrogen) as fluorescent probe. The purified (native and alkylated) protein samples were incubated for 30 min with increasing concentration of the molecules of interest, centrifuged, and submitted to the thermal denaturation assay, totalizing four distinct experiments. In a 96-well plate (Agilent Technologies) 20 μl of the reaction containing 5 μM of each protein in buffer PBS 1× and 5× SYPRO® Orange were heated from 25° C. to 95° C. at a rate of 1° C./min. The experimental result was processed as in the protocol previously described and the melting temperature was obtained using GraphPad Prism software (www.graphpad.com).

[10] = target: T1, hGal1-induced hemagglutination of red blood cells (Homo sapiens, UniProt P09382); assay: Hemagglutination inhibition assay, native hGal1; assay type: cell-based
T1 construct: 42; made in house; host or cells: E. coli strain M-15
T1 sequence (P09382 2-135): as above
Outline: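 hGal1 (5 μM) was mixed with aptamer at 0-40 μM in PBS pH 7.4, then 3% type B+ human red blood cells were added and the mixture incubated 2 h at room temperature. Agglutination area was measured from plate photographs and expressed as relative agglutination.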

[11] = test system: OVCAR-3 cell line; assay: Synergism test with cisplatin, OVCAR-3; conditions: aptamer 12.5 μM associated with cisplatin 3 μM
Text: For the analysis of cell proliferation, the non-clonogenic method of sulforodamine B (SRB) was used, a protein dye that binds to the basic amino acid residues of cell proteins that were viable at the time of the fixation process. Therefore, the greater the amount of SRB bound per compartment, the less the antiproliferative activity of the item under study.

B1: CTGACACAGCAGGTTGGTGCCAACTAACACCATAAGAATACCCCGCTCCAAATAAGCCCACACGTAAACCCGAGTCGAGCAATCTCGAAAT (nucleic acid)
DNA: CTGACACAGCAGGTTGGTGCCAACTAACACCATAAGAATACCCCGCTCCAAATAAGCCCACACGTAAACCCGAGTCGAGCAATCTCGAAAT
modifications: chemistry not given here
notes: DNA aptamer that recognizes human galectin-1
How did the “Relative viability (%) of test items” value ([1]; 0.781 µM) turn out when B1 was run?
Its value is 110.4%.

What about the “Relative viability (%) of test items” value ([1]; 1.562 µM) of the same molecule?
Its value is 96.7%.

And the “Relative viability (%) of test items” value ([1]; 3.125 µM)?
Its value is 95.8%.

What about the “Relative viability (%) of test items” value ([1]; 6.25 µM) of the same molecule?
The value was 86.2%.

And the “Relative viability (%) of test items” value ([1]; 12.5 µM)?
The value was 72.7%.

What about the “Relative viability (%) of test items” value ([1]; 25 µM) of the same molecule?
Its value is 60.9%.

What about the “Relative viability (%) of test items” value ([1]; 50 µM) of the same molecule?
Its value is 43.4%.

What about the “Relative viability (%) of test items” value ([1]; 100 µM) of the same molecule?
Its value is 0.7%.

What about the “TGI: Concentration for total inhibition of cell growth” value ([1]; MCF-7) of the same molecule?
The value was greater than 100 µM.

What about the IC50 ([1]; read-out: IC50: Concentration to inhibit 50% of cell growth, MCF-7) of the same molecule?
Its IC50 is 35.1 µM.

What about the CC50 ([1]; read-out: LC50: Concentration for 50% cell death, MCF-7) of the same molecule?
Its CC50 is greater than 100 µM.

What about the “Relative viability (%) of test items” value ([2]; 0.781 µM) of the same molecule?
The value was 109.3%.

And the “Relative viability (%) of test items” value ([2]; 1.562 µM)?
The value was 100.6%.

And the “Relative viability (%) of test items” value ([2]; 3.125 µM)?
Its value is 104.7%.

What about the “Relative viability (%) of test items” value ([2]; 6.25 µM) of the same molecule?
Its value is 109.6%.

And the “Relative viability (%) of test items” value ([2]; 12.5 µM)?
Its value is 104.3%.

And the “Relative viability (%) of test items” value ([2]; 25 µM)?
Its value is 88.5%.

And the “Relative viability (%) of test items” value ([2]; 50 µM)?
Its value is 68.4%.

And the “Relative viability (%) of test items” value ([2]; 100 µM)?
Its value is 36.0%.

What about the IC50 ([2]; read-out: IC50: Concentration to inhibit 50% of cell growth, DU-145) of the same molecule?
Its IC50 is 72.6 µM.

And the “Relative cell viability (%) of test items” value (“Relative cell viability (%)” for short) ([3]; 0.781 µM)?
Its value is 109.5%.

And the “Relative cell viability (%)” value ([3]; 1.562 µM)?
The value was 100.6%.

And the “Relative cell viability (%)” value ([3]; 3.125 µM)?
The value was 103.0%.

What about the “Relative cell viability (%)” value ([3]; 6.25 µM) of the same molecule?
The value was 97.3%.

What about the “Relative cell viability (%)” value ([3]; 12.5 µM) of the same molecule?
The value was 85.8%.

And the “Relative cell viability (%)” value ([3]; 25 µM)?
Its value is 35.7%.

What about the “Relative cell viability (%)” value ([3]; 50 µM) of the same molecule?
Its value is −69.0%.

What about the “Relative cell viability (%)” value ([3]; 100 µM) of the same molecule?
Its value is −72.3%.

And the “TGI: Concentration for total inhibition of cell growth” value ([3]; A-375)?
Its value is 29.656 µM.

And the IC50 ([3]; read-out: IC50: Concentration to inhibit 50% of cell growth, A-375)?
The IC50 was 22.7 µM.

And the CC50 ([3]; read-out: LC50: Concentration for 50% cell death, A-375)?
The CC50 was 41.1 µM.

What about the “Relative cell viability (%)” value ([4]; 0.781 µM) of the same molecule?
The value was 93.5%.

What about the “Relative cell viability (%)” value ([4]; 1.562 µM) of the same molecule?
The value was 90.7%.

What about the “Relative cell viability (%)” value ([4]; 3.125 µM) of the same molecule?
The value was 88.6%.

And the “Relative cell viability (%)” value ([4]; 6.25 µM)?
The value was 74.6%.

And the “Relative cell viability (%)” value ([4]; 12.5 µM)?
The value was 47.4%.

And the “Relative cell viability (%)” value ([4]; 25 µM)?
The value was 5.8%.

And the “Relative cell viability (%)” value ([4]; 50 µM)?
The value was −84.0%.

And the “Relative cell viability (%)” value ([4]; 100 µM)?
Its value is −61.1%.

What about the “TGI: Concentration for total inhibition of cell growth” value ([4]; HT-29) of the same molecule?
The value was 22.932 µM.

And the IC50 ([4]; read-out: IC50: Concentration to inhibit 50% of cell growth, HT-29)?
The IC50 was 13.5 µM.

And the CC50 ([4]; read-out: LC50: Concentration for 50% cell death, HT-29)?
Its CC50 is 40.9 µM.

What about the “Relative cell viability (%)” value ([5]; 0.781 µM) of the same molecule?
The value was 103.6%.

What about the “Relative cell viability (%)” value ([5]; 1.562 µM) of the same molecule?
Its value is 95.4%.

What about the “Relative cell viability (%)” value ([5]; 3.125 µM) of the same molecule?
Its value is 85.5%.

And the “Relative cell viability (%)” value ([5]; 6.25 µM)?
Its value is 85.0%.

What about the “Relative cell viability (%)” value ([5]; 12.5 µM) of the same molecule?
Its value is 57.1%.

What about the “Relative cell viability (%)” value ([5]; 25 µM) of the same molecule?
Its value is 24.4%.

And the “Relative cell viability (%)” value ([5]; 50 µM)?
Its value is 3.6%.

What about the “Relative cell viability (%)” value ([5]; 100 µM) of the same molecule?
Its value is −70.2%.

What about the “TGI: Concentration for total inhibition of cell growth” value ([5]; HCT 116) of the same molecule?
Its value is 45.410 µM.

What about the IC50 ([5]; read-out: IC50: Concentration to inhibit 50% of cell growth, HCT 116) of the same molecule?
Its IC50 is 16.8 µM.

And the CC50 ([5]; read-out: LC50: Concentration for 50% cell death, HCT 116)?
Its CC50 is 84.4 µM.

What about the “Relative cell viability (%)” value ([6]; 0.781 µM) of the same molecule?
The value was 101.9%.

What about the “Relative cell viability (%)” value ([6]; 1.562 µM) of the same molecule?
Its value is 103.4%.

And the “Relative cell viability (%)” value ([6]; 3.125 µM)?
The value was 98.6%.

And the “Relative cell viability (%)” value ([6]; 6.25 µM)?
Its value is 106.2%.

And the “Relative cell viability (%)” value ([6]; 12.5 µM)?
The value was 96.1%.

What about the “Relative cell viability (%)” value ([6]; 25 µM) of the same molecule?
Its value is 47.0%.

And the “Relative cell viability (%)” value ([6]; 50 µM)?
The value was −34.6%.

And the “Relative cell viability (%)” value ([6]; 100 µM)?
Its value is −86.3%.

What about the “TGI: Concentration for total inhibition of cell growth” value ([6]; SK-BR-3) of the same molecule?
Its value is 37.515 µM.

What about the IC50 ([6]; read-out: IC50: Concentration to inhibit 50% of cell growth, SK-BR-3) of the same molecule?
The IC50 was 25 µM.

What about the CC50 ([6]; read-out: LC50: Concentration for 50% cell death, SK-BR-3) of the same molecule?
The CC50 was 56.9 µM.

What about the “Relative viability (%) of test items” value ([7]; 0.781 µM) of the same molecule?
Its value is 99.6%.

What about the “Relative viability (%) of test items” value ([7]; 1.562 µM) of the same molecule?
The value was 93.9%.

What about the “Relative viability (%) of test items” value ([7]; 3.125 µM) of the same molecule?
Its value is 89.4%.

And the “Relative viability (%) of test items” value ([7]; 6.25 µM)?
Its value is 67.2%.

What about the “Relative viability (%) of test items” value ([7]; 25 µM) of the same molecule?
Its value is 37.7%.

And the “Relative viability (%) of test items” value ([7]; 50 µM)?
The value was −14.6%.

And the “Relative viability (%) of test items” value ([7]; 100 µM)?
Its value is −68.1%.

What about the “TGI: Concentration for total inhibition of cell growth” value ([7]; OVCAR-3) of the same molecule?
The value was 41.931 µM.

And the IC50 ([7]; read-out: IC50: Concentration to inhibit 50% of cell growth, OVCAR-3)?
Its IC50 is 14.2 µM.

And the CC50 ([7]; read-out: LC50: Concentration for 50% cell death, OVCAR-3)?
Its CC50 is 82.4 µM.

And the “Relative viability (%) of test items” value ([8]; 0.781 µM)?
The value was 95.3%.

And the “Relative viability (%) of test items” value ([8]; 1.562 µM)?
The value was 94.2%.

What about the “Relative viability (%) of test items” value ([8]; 3.125 µM) of the same molecule?
Its value is 98.4%.

What about the “Relative viability (%) of test items” value ([8]; 6.25 µM) of the same molecule?
The value was 100.7%.

And the “Relative viability (%) of test items” value ([8]; 12.5 µM)?
Its value is 106.6%.

And the “Relative viability (%) of test items” value ([8]; 25 µM)?
The value was 73.4%.

And the “Relative viability (%) of test items” value ([8]; 50 µM)?
Its value is 19.8%.

What about the “Relative viability (%) of test items” value ([8]; 100 µM) of the same molecule?
The value was −25.4%.

And the “TGI: Concentration for total inhibition of cell growth” value ([8]; NHF)?
The value was 63.101 µM.

And the IC50 ([8]; read-out: IC50: Concentration to inhibit 50% of cell growth, NHF)?
Its IC50 is 35.6 µM.

And the “temperature variation (Tm) of alkylated galectin-1” value [9]?
Its value is “not significant”.

And the “inhibition effect over RBC agglutination” value ([10]; 10 μM aptamer, 5 μM hGal1)?
Its value is “approximately 75%”.

What about the “inhibitory effect on galectin-induced hemagglutination” value ([10]; native Gal1 5 μM) of the same molecule?
The value was “better effect”.

And the “concentration from which hemagglutination was inhibited” value ([10]; native Gal1 5 μM, listed as aptamer 4)?
Its value is 10 µM.

What about the “decrease of cell viability versus cisplatin alone” value [11] of the same molecule?
Its value is roughly 60%.
